Paper PMC3282741, “Independent Recruitment of a Flavin-Dependent Monooxygenase for Safe Accumulation of Sequestered Pyrrolizidine Alkaloids in Grasshoppers and Moths” (PLoS ONE, 2012)

Experiments:
[1] = system: CN1[C@@H]2CC[C@H]1CC(OC(=O)C(CO)c1ccccc1)C2; assay: purified protein; conditions: 0.2 mM NADPH, 100 mM glycine/NaOH pH 9, 37°C
[2] = system: C/C=C1/C[C@@H](C)[C@@](C)(O)C(=O)OCC2=CCN3CC[C@@H](OC1=O)[C@@H]23; assay: purified protein; type: biochemical, Zonocerus variegatus; conditions: 0.2 mM NADPH, 100 mM glycine/NaOH pH 9, 37°C
Text: (§1) photometric or radioassay N-oxygenation, initial rates on ZvPNO

[3] = system: CO[C@H](C)[C@](O)(C(=O)OCC1=CCN2CC[C@H](O)[C@@H]12)C(C)C; assay: purified protein; type: biochemical, Zonocerus variegatus; conditions: 0.2 mM NADPH, 100 mM glycine/NaOH pH 9, 37°C
Text: as §1

[4] = system: C[C@H]1C(=O)O[C@@H]2CCN3CC=C(COC(=O)[C@](C)(O)[C@]1(C)O)[C@H]23; assay: purified protein; type: biochemical, Zonocerus variegatus; conditions: 0.2 mM NADPH, 100 mM glycine/NaOH pH 9, 37°C
Text: as §1

ZvPNO = biological target: T1, ZvPNO (Zonocerus variegatus, UniProt L0N8S9); type: biochemical; conditions: 0.2 mM NADPH; 100 mM glycine/NaOH pH 9; 37°C
T1 construct: gene pno; full ORF (1242 bp, 47,793 Da subunit), no signal peptide predicted, C-terminal His6, pET28a, E. coli BL21(DE3), Ni-NTA; homodimer (91,200 Da)
Text: as §1

Substance	Km [1]	Vmax [1]	kcat [1]	kcat/Km [1]	Km [2]	Vmax [2]	kcat [2]	kcat/Km [2]	Km [3]	Vmax [3]	kcat [3]	kcat/Km [3]	Km [4]	Vmax [4]	kcat [4]	kcat/Km [4]	Km (ZvPNO)
ZvPNO (Zonocerus variegatus)	9.83 ± 1.04 µM	0.461 µmol/min/mg	0.37 s⁻¹	37600 M⁻¹ s⁻¹	1.08 ± 0.07 µM	1.24 µmol/min/mg	0.99 s⁻¹	917000 M⁻¹ s⁻¹	263.89 ± 10.06 µM	0.149 µmol/min/mg	0.12 s⁻¹	454 M⁻¹ s⁻¹	11.93 ± 0.76 µM	1.2 µmol/min/mg	0.96 s⁻¹	80500 M⁻¹ s⁻¹	–
phalaenopsine	–	–	–	–	–	–	–	–	–	–	–	–	–	–	–	–	838 ± 77.4 µM
